Experimental data published in US20180118806A1 (MIT, published 2018).
“And” between values parts separate entries of the source, which are not always exact repeats. Equal entries are not always repeated.

Columns and labels:
Rantes (CCL5) [1] = target: T1, Rantes (CCL5) (UniProt P13501 24-91); assay: MST, run 2, technical repeat; run 2, first technical repeat
T1 construct: In the yeast 2-hybrid screen the ligand construct is not described
T1 sequence (looked up): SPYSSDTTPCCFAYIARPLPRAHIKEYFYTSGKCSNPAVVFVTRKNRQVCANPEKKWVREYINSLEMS
Method: (§1) Each run of assay systematically measures 16 capillaries with identical concentration of a non-full length CCR5^QTY variant, but different concentrations of Rantes (Prospecbio http://www.prospecbio.com/Rantes/) with 2 duplicate measurements (Technical repeat 1 and 2).
(§2) Briefly, serial dilution of the target molecule Rantes was prepared in buffer to match the final buffer conditions in the reaction mix. The highest concentration of target was 6.0 μM, and the lowest 184.0 pM. About 5 μl of each dilution step were mixed with 5 μl of the fluorescent molecule—a partial water-soluble […] variant of CCR5 (e.g., CCR5-SZ218a). The final reaction mixture, which was filled in capillaries, contained a respective amount of target molecule (max. conc. 3.0 μM, min conc. 92.0 pM) and constant 5 nM fluorescent molecule.
(§3) The samples were analyzed on a Monolith NT.115 Pico at 25° C., with 12% LED power and 80% Laser power. No sticking of the fluorescent interaction partner to the capillary walls was indicated in the capillary scan.

Rantes (CCL5) [2] = target: T1, Rantes (CCL5); assay: MST (MicroScale Thermophoresis), labelled CCR5QTY variant constant, Rantes titrated (axis 0.01-10000 nM); left panel, fits of Tech. 1 and Tech. 2
Method: as §1, §2, §3

Rantes (CCL5) [3] = target: T1, Rantes (CCL5); assay: MST, run 1, technical repeat; dye-labelled variant at 5 nM, Rantes titrated (FIG. 7); run 1, second technical repeat
Method: as §1, §2, §3

Rantes (CCL5) [4] = target: T1, Rantes (CCL5); assay: MST, run 2, technical repeat; run 2, second technical repeat
Method: as §1, §2, §3

Rantes (CCL5) [5] = target: T1, Rantes (CCL5); assay: MST, run 3, technical repeat; run 3, first technical repeat
Method: as §1, §2, §3

Rantes (CCL5) [6] = target: T1, Rantes (CCL5); assay: MST, run 1, technical repeat; dye-labelled variant at 5 nM, Rantes titrated (FIG. 7); run 1, first technical repeat
Method: as §1, §2, §3

Rantes (CCL5) [7] = target: T1, Rantes (CCL5); assay: MST (MicroScale Thermophoresis), labelled CCR5QTY variant constant, Rantes titrated (axis 0.01-10000 nM); right panel, fits of Tech. 1 and Tech. 2
Method: as §1, §2, §3

Rantes (CCL5) [8] = target: T1, Rantes (CCL5); assay: MST, run 3, technical repeat; run 3, second technical repeat
Method: as §1, §2, §3

Rantes (CCL5) [9] = target: T1, Rantes (CCL5); assay: MST, run 2, technical repeat; dye-labelled variant at 5 nM, Rantes titrated
Method: as §1, §2, §3

Rantes (CCL5) [10] = target: T1, Rantes (CCL5); assay: MST, run 3, LED power 15%, technical repeat
Method: as §1, §2

Rantes (CCL5) [11] = target: T1, Rantes (CCL5); assay: MST, run 1, technical repeat; dye-labelled variant at 5 nM, Rantes titrated
Method: as §1, §2, §3

Rantes (CCL5) [12] = target: T1, Rantes (CCL5); assay: MST, run 1, rounded value of the two technical repeats
Method: as §1, §2, §3

Rantes (CCL5) [13] = target: T1, Rantes (CCL5); assay: MST, run 2, rounded value of the two technical repeats (FIG. 6)
Method: as §1, §2, §3

Rantes (CCL5) [14] = target: T1, Rantes (CCL5); assay: MST (FIG. 5)
Method: as §1, §2, §3

Rantes (CCL5) [15] = target: T1, Rantes (CCL5); assay: fluorescent MST (FIG. 5)
Method: as §1, §2, §3

Row | Binder | Kd (Rantes (CCL5) [1]) | Kd (Rantes (CCL5) [2]) | Kd (Rantes (CCL5) [3]) | Kd (Rantes (CCL5) [4]) | Kd (Rantes (CCL5) [5]) | Kd (Rantes (CCL5) [6]) | Kd (Rantes (CCL5) [7]) | Kd (Rantes (CCL5) [8]) | Kd (Rantes (CCL5) [9]) | Kd (Rantes (CCL5) [10]) | Kd (Rantes (CCL5) [11]) | Kd (Rantes (CCL5) [12]) | Kd (Rantes (CCL5) [13]) | Kd (Rantes (CCL5) [14]) | Kd (Rantes (CCL5) [15])
1 | SZ190b = CCR5QTY(190b) (receptor, labelled with the dye DY647P1 in the MST assay (site not stated), Partial QTY variant of CCR5, 190 aa; Dye-labelled in MST; in the yeast 2-hybrid screen the fusion partner is not described; also called 5NA-17: Contig1; CCR5_SZ190b DY647P1) MDYQVSSPIYDINYYTSEPCQKINVKQIAARLQPPQYSQTFTFGFTGNMQTTQTQINCKRLKSMTDIYLQNQAISDQFFQQTTPYWAPYNTVQQQNTFQEFFGLNNCSSSNRLDQAMQVTETQGMTHCCTNPTIYAFVGEKFRNYLLVFFQKHIAKRFCKCCSIFQQEAPERASSVYTRSTGEQEISVGL | 27.4 nM | ~46 nM | 51.8 nM | 56.5 nM | 32 nM | 46.5 nM | ~48 nM | 54.9 nM |  |  |  |  |  |  | 
2 | SZ218a = CCR5QTY(218a) (receptor, labelled with the dye DY647P1 in the MST assay (site not stated), Dye-labelled in MST; fusion partner in yeast 2-hybrid not described; also called 5NA-43; CCR5_SZ218a DY647P1) MDYQVSSPIYDINYYTSEPCQKINVKQIAARQQPPQYSQTYTFGFTGNMQTTQTQINCKRLKSMTDIYLQNQAISDQFFQQTTPFWAHYAAAQWDFGNTMCQQQTGQYFTGYYSGTYYTTQQLNTFQEFFGLNNCSSSNRLDQAMQTTETQGMTHCCINPTTYAYVGEKFRNYLLVFFQKHIAKRFCKCCSIFQQEAPERASSVYTRSTGEQEISVGL |  |  |  |  |  |  |  |  | 80.2 nM and 83.2 nM | 86.9 nM and 94.6 nM | 74.5 nM and 76.2 nM | ~75 nM | ~80 nM |  | 
3 | SZ352a = CCR5QTY(352a) (receptor, labelled with a dye in the MST assay (dye and site not stated for this variant), Full-length (352 aa) QTY variant of CCR5, used as control in MST; also called CC15-22; full-length (352 aa) CCR5^QTY variant) MDYQVSSPIYDINYYTSEPCQKINVKQIAARQQPPQYSQTFTYGFTGNMQTTQTQINCKRLKSMTDIYLQNQAISDQYYQQTTPYWAHYAAAQWDFGNTMCQQQTGQYFTGYYSGTYYTTQQTTDRYLAVVHAVFALKARTTTYGTTTSTTTWTTATYASQPGTTYTRSQKEGLHYTCSSHFPYSQYQFWKNFQTLKITIQGQVQPQQTMVTCYSGTQKTLLRCRNEKKRHRAVRQTFTTMTTYYQYWAPYNTTQQLNTFQEFFGLNNCSSSNRLDQAMQVTETQGMTHCCTNPTIYAYVGEKFRNYLLVFFQKHIAKRFCKCCSIFQQEAPERASSVYTRSTGEQEISVGL |  | ~28 nM |  |  |  |  | ~32 nM |  |  |  |  |  |  | 28 to 32 nM | ~30 nM
